Experimental findings from patent US20110311523A1 are described below.

The assay deals with human platelet derived growth factor-α receptor (PDGFRα) (human) (UniProt P16234). Put plainly: cell-based or functional assay.
Chain of human platelet derived growth factor-α receptor (PDGFRα) (human) (P16234 24-1089): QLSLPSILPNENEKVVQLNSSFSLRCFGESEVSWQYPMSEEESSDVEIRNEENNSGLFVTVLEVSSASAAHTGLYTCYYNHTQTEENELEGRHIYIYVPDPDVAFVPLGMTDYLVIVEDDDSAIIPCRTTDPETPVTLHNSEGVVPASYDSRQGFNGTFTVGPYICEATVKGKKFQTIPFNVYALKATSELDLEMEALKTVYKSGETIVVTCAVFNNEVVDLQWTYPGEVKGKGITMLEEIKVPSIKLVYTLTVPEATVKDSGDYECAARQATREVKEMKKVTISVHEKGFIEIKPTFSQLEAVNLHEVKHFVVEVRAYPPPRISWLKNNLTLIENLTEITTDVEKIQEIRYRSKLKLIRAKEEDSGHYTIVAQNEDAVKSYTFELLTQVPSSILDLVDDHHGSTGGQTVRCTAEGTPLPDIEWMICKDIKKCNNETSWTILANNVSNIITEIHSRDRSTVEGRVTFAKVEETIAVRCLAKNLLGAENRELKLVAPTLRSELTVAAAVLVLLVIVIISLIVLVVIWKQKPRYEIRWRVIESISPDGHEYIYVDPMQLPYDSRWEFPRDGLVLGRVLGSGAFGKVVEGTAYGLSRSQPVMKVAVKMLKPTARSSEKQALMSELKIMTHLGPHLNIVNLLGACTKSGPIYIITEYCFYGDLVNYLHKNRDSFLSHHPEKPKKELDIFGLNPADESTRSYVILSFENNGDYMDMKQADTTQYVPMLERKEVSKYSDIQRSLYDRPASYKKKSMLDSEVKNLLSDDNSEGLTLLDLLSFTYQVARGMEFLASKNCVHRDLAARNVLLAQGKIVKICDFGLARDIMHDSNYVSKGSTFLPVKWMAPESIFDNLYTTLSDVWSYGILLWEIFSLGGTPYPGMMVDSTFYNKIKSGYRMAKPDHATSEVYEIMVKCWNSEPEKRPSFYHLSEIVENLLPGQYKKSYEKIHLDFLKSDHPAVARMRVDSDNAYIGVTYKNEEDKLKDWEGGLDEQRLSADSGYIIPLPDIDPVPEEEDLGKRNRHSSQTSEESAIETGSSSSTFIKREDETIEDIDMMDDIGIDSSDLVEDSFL

“IMC-3G3, a humanized PDGFRα blocking antibody (ImClone Inc.)” displayed a decrease in HCMV entry (pp65 positive cells) of 45%. For “PDGF-AA (from UniProt P04085 87-211) (ligand)” the value was 30%.
